# Measurements published in patent US10064928B2, “Peptides and combination of peptides for use in immunotherapy against CLL and other cancers” (IMMATICS BIOTECHNOLOGIES GMBH, priority 2015, dated 2018).
# Target: HLA-A*02:01 (Homo sapiens, UniProt P04439, D140Y/D185E/D98H/E176V/E277Q/G131W/G231S/I119V/I121R/I166T/I218V/L300P/L318F/N151K/N90K/P208A/P217A/Q86G/Q94H/R138H/R169H/T345S)
# Experiment: MHC binding assay (UV-ligand exchange, beta2m ELISA)
# Conditions: binding of HLA-class I restricted peptides to HLA-A*02:01, β2m ELISA
# Procedure, shortened: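 Exchange yield is an ELISA read-out: complexes diluted 100-fold, captured on streptavidin plates, detected with HRP anti-β2m and TMB at 450 nm. Standard curve from refolded HLA-A*02:01/MLA-001 (15-500 ng/ml); complexes made by UV-triggered displacement of a photolabile ligand by test peptide.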
row,Substance,"Peptide Exchange (MHC class I binding score, peptide exchange yield)"
1,292 (AAALIIHHV; listed as Homo sapiens) [compound 292],“+++” (≥50 = +++)
2,168 (YLLDQSFVM; listed as Homo sapiens) [compound 168],“++++” (≥75% = ++++)
3,350 (ALEDRVWEL; listed as Homo sapiens) [compound 350],“+++” (≥50 = +++)
4,277 (VMILKLPFL; listed as Homo sapiens) [compound 277],“++” (≥20% = ++)
5,274 (VLLEYHIAYL; listed as Homo sapiens) [compound 274],“+++” (≥50 = +++)
6,104 (KLILLDTPLFL; listed as Homo sapiens) [compound 104],“+++” (≥50 = +++)
7,187 (VMDTHLVNI; listed as Homo sapiens) [compound 187],“++++” (≥75% = ++++)
8,124 (LLLEETEKQAV; listed as Homo sapiens) [compound 124],“+++” (≥50 = +++)
9,137 (NLIKTVIKL; listed as Homo sapiens) [compound 137],“+++” (≥50 = +++)
10,131 (LQALEVLKI; listed as Homo sapiens) [compound 131],“+” (≥10% = +)
11,138 (NLLDIDAPVTV; listed as Homo sapiens) [compound 138],“+++” (≥50 = +++)
12,9 (ALCDTLITV; listed as Homo sapiens) [compound 9],“+++” (≥50 = +++)
13,364 (KMDWIFHTI; listed as Homo sapiens) [compound 364],“+++” (≥50 = +++)
14,362 (ILTELGGFEV; listed as Homo sapiens) [compound 362],“+++” (≥50 = +++)
15,45 (FLPELPADLEA; listed as Homo sapiens) [compound 45],“+++” (≥50 = +++)
16,23 (ALYLTEVFL; listed as Homo sapiens) [compound 23],“++++” (≥75% = ++++)
17,361 (ILQEFESKL; listed as Homo sapiens) [compound 361],“+++” (≥50 = +++)
18,165 (TLDDDLDTV; listed as Homo sapiens) [compound 165],“++” (≥20% = ++)
19,126 (LLPEGGITAI; listed as Homo sapiens) [compound 126],“+++” (≥50 = +++)
20,80 (VLIEDELEEL; listed as Homo sapiens) [compound 80],“++” (≥20% = ++)
21,312 (LLYNSTDPTL; listed as Homo sapiens) [compound 312],“+++” (≥50 = +++)

row,Substance,"Peptide Exchange (MHC class I binding score, peptide exchange yield)"
1,59 (FVFGDENGTVSL; listed as Homo sapiens) [compound 59],“+++” (≥50 = +++)
2,333 (VTLEFPQLIRV; listed as Homo sapiens) [compound 333],“+++” (≥50 = +++)
3,238 (GLVETELQL; listed as Homo sapiens) [compound 238],“+++” (≥50 = +++)
4,262 (SLWNAGTSV; listed as Homo sapiens) [compound 262],“+++” (≥50 = +++)
5,237 (GLQENLDVVV; listed as Homo sapiens) [compound 237],“++++” (≥75% = ++++)
6,288 (GLAESTGLLAV; listed as Homo sapiens) [compound 288],“+++” (≥50 = +++)
7,70 (FVPDTPVGV; listed as Homo sapiens) [compound 70],“+++” (≥50 = +++)
8,136 (NLDKLWTLV; listed as Homo sapiens) [compound 136],“++” (≥20% = ++)
9,191 (YIFDGSDGGV; listed as Homo sapiens) [compound 191],“+++” (≥50 = +++)
10,53 (FLWQHVELVL; listed as Homo sapiens) [compound 53],“+++” (≥50 = +++)
11,381 (YLLEENKIKL; listed as Homo sapiens) [compound 381],“+++” (≥50 = +++)
12,62 (GIIDGSPRL; listed as Homo sapiens) [compound 62],“+++” (≥50 = +++)
13,266 (TLLDQLDTQL; listed as Homo sapiens) [compound 266],“++” (≥20% = ++)
14,48 (FLSPQQPPLL; listed as Homo sapiens) [compound 48],“+++” (≥50 = +++)
15,341 (LLAELPASVHA; listed as Homo sapiens) [compound 341],“+++” (≥50 = +++)
16,319 (QVIPQLQTV; listed as Homo sapiens) [compound 319],“+++” (≥50 = +++)
17,335 (YLYQEQYFI; listed as Homo sapiens) [compound 335],“+++” (≥50 = +++)
18,273 (VLGEYSYLL; listed as Homo sapiens) [compound 273],“+++” (≥50 = +++)
19,270 (TVLPVPPLSV; listed as Homo sapiens) [compound 270],“+++” (≥50 = +++)
20,84 (GVMDVNTAL; listed as Homo sapiens) [compound 84],“++” (≥20% = ++)
21,132 (LVYEAIIMV; listed as Homo sapiens) [compound 132],“+++” (≥50 = +++)

row,Substance,"Peptide Exchange (MHC class I binding score, peptide exchange yield)"
1,363 (ITTEVVNELYV; listed as Homo sapiens) [compound 363],“+++” (≥50 = +++)
2,30 (ELLEGSEIYL; listed as Homo sapiens) [compound 30],“+++” (≥50 = +++)
3,173 (TVIENIHTI; listed as Homo sapiens) [compound 173],“++” (≥20% = ++)
4,8 (ALAASALPALV; listed as Homo sapiens) [compound 8],“+++” (≥50 = +++)
5,265 (TLLADDLEIKL; listed as Homo sapiens) [compound 265],“+++” (≥50 = +++)
6,378 (YILGKFFAL; listed as Homo sapiens) [compound 378],“+++” (≥50 = +++)
7,50 (FLFEPVVKAFL; listed as Homo sapiens) [compound 50],“+++” (≥50 = +++)
8,120 (AIDAALTSV; listed as Homo sapiens) [compound 120],“+++” (≥50 = +++)
9,370 (SIFASPESV; listed as Homo sapiens) [compound 370],“+++” (≥50 = +++)
10,10 (FVYGESVEL; listed as Homo sapiens) [compound 10],“+++” (≥50 = +++)
11,227 (FLAEASVMTQL; listed as Homo sapiens) [compound 227],“+++” (≥50 = +++)
12,29 (AVLQAVTAV; listed as Homo sapiens) [compound 29],“+++” (≥50 = +++)
13,83 (GQGEVLVYV; listed as Homo sapiens) [compound 83],“+++” (≥50 = +++)
14,28 (AVLHLLLSV; listed as Homo sapiens) [compound 28],“++” (≥20% = ++)
15,253 (NLWSVDGEVTV; listed as Homo sapiens) [compound 253],“+++” (≥50 = +++)
16,234 (GLDDAEYAL; listed as Homo sapiens) [compound 234],“++” (≥20% = ++)
17,251 (LLYDNVPGA; listed as Homo sapiens) [compound 251],“+++” (≥50 = +++)
18,148 (SIVASLITV; listed as Homo sapiens) [compound 148],“+++” (≥50 = +++)
19,371 (SLADDSVLERL; listed as Homo sapiens) [compound 371],“+++” (≥50 = +++)
